# According to article doi:10.1101/2024.05.21.594841 (bioRxiv, 2024):
# B1: Lhs1p (natural protein)
# chain: AVLGVDYGQQNIKAIVVSPQAPLELVLTPEAKRKEISGLSIKRLPGYGKDDPNGIERIYGSAVGSLATRFPQNTLLHLKPLLGKSLEDETTVTLYSKQHPGLEMVSTNRSTIAFLVDNVEYPLEELVAMNVQEIANRANSLLKDRDARTEDFVNKMSFTIPDFFDQHQRKALLDASSITTGIEETYLVSEGMSVAVNFVLKQRQFPPGEQQHYIVYDMGSGSIKASMFSILQPEDTTQPVTIEFEGYGYNPHLGGAKFTMDIGSLIENKFLETHPAIRTDELHANPKALAKINQAAEKAKLILSANSEASINIESLINDIDFRTSITRQEFEEFIADSLLDIVKPINDAVTKQFGGYGTNLPEINGVILAGGSSRIPIVQDQLIKLVSEEKVLRNVNADESAVNGVVMRGIKLSNSFKTKPLNVVDRSVNTYSFKLSNESELYDVFTRGSAYPNKTSILTNTTDSIPNNFTIDLFENGKLFETITVNSGAIKNSYSSDKCSSGVAYNITFDLSSDRLFSIQEVNCICQSENDIGNSKQIKNKGSRLAFTSEDVEIKRLSPSERSRLHEHIKLLDKQDKERFQFQENLNVLESNLYDARNLLMDDEVMQNGPKSQVEELSEMVKVYLDWLEDASFDTDPEDIVSRIREIGILKKKIELYMDSAKEPLNSQQFKGMLEEGHKLLQAIETHKNTVEEFLSQFETEFADTIDNVREEFKKIKQPAYVSKALSTWEETLTSFKNSISEIEKFLAKNLFGEDLREHLFEIKLQFDMYRTKLEEKLRLIKSGDESRLNEIKKLHLRNFRLQKRKEEKLKRKLEQEKSRNNNETESTVINSADDKTTIVNDKTTESNPSSEEDILHDEL
# How the values were obtained:
# Assay in all cases: split reporter
# [1] = target: Cpr5p (S. cerevisiae, UniProt P35176 23-225)
# [2] = target: T1, Sil1p (S. cerevisiae, UniProt Q08199 20-421)
# T1 sequence: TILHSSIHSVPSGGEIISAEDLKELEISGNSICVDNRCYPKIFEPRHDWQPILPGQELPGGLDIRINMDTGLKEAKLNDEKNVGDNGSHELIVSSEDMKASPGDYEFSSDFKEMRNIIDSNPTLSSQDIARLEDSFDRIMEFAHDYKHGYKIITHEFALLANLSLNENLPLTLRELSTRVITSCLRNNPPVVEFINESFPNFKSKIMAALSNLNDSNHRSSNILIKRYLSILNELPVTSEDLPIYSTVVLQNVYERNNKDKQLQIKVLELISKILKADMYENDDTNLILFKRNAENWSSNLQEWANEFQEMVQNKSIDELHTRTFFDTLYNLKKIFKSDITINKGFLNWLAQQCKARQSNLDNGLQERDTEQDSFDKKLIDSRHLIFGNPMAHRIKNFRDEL
# [3] = target: T2, Scj1p (S. cerevisiae, UniProt P25303 22-377)
# T2 sequence: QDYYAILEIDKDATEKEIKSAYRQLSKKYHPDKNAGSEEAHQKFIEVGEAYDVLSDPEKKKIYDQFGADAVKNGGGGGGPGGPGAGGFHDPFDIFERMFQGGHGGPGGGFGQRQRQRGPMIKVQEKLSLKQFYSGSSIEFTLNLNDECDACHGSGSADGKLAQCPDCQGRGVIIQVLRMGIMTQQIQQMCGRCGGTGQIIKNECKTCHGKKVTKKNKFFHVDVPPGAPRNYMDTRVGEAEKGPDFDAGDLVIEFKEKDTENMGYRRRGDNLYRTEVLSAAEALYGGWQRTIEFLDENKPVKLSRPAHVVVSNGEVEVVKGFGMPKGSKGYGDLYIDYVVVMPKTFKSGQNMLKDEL
# [4] = target: T3, Pdi1p (S. cerevisiae, UniProt P17967 29-522)
# T3 sequence: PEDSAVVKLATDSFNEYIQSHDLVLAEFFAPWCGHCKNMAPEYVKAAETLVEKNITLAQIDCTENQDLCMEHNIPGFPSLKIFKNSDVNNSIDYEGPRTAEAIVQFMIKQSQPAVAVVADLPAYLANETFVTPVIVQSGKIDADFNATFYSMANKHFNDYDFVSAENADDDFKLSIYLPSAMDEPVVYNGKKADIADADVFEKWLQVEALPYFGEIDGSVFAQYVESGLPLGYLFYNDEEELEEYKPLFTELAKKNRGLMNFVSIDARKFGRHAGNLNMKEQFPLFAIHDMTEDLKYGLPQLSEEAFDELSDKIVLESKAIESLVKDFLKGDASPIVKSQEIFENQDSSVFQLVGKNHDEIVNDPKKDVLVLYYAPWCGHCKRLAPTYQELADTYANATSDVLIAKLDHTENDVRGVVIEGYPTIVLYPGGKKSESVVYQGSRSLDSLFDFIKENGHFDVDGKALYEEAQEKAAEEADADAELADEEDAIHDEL
# [5] = target: Kar2p (S. cerevisiae, UniProt P16474 43-682)
# Chain of Kar2p (P16474 43-682): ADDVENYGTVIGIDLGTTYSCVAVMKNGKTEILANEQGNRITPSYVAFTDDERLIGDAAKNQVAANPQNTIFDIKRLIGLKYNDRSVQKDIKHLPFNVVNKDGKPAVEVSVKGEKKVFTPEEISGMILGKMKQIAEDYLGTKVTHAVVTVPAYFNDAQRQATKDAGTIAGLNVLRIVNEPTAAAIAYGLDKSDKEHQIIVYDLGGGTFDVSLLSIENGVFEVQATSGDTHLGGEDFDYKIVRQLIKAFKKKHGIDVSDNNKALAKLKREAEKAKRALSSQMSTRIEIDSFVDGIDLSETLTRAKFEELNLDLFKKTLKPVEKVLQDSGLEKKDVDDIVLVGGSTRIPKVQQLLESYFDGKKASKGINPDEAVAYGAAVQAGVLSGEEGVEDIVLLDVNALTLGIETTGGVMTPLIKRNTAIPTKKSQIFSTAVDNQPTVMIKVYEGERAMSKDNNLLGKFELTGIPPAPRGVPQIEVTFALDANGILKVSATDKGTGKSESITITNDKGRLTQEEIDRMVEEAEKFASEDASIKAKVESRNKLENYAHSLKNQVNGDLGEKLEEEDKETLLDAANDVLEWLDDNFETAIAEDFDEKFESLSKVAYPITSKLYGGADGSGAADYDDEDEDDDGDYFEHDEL
# Chain of Cpr5p (P35176 23-225): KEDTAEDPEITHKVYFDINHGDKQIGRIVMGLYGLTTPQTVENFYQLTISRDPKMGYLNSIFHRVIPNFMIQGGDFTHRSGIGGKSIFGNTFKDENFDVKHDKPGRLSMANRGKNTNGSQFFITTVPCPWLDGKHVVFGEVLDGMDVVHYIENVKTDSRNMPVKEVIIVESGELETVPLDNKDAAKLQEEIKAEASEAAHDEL
binder,measurement,setting,value
B1,normalized interacting score,[1],> 40%
same,normalized interacting score,[2],93%
same,normalized interacting score,[3],> 40%
same,normalized interacting score,[4],> 40%
same,normalized interacting score,[5],93%
